# Source: PMC10244618
# B1: NF2 (merlin) isoform 7, human, full length (507 aa, lacks exons 2-3 = isoform-1 residues 39-121; exon-16 C-terminus), P35240-4 (parent)
# chain: MAGAIASRMSFSSLKRKQPKTFTVRIVTMDAEMEFNCEVKKQILDEKIYCPPEASVLLASYAVQAKYGDYDPSVHKRGFLAQEELLPKRVINLYQMTPEMWEERITAWYAEHRGRARDEAEMEYLKIAQDLEMYGVNYFAIRNKKGTELLLGVDALGLHIYDPENRLTPKISFPWNEIRNISYSDKEFTIKPLDKKIDVFKFNSSKLRVNKLILQLCIGNHDLFMRRRKADSLEVQQMKAQAREEKARKQMERQRLAREKQMREEAERTRDELERRLLQMKEEATMANEALMRSEETADLLAEKAQITEEEAKLLAQKAAEAEQEMQRIKATAIRTEEEKRLMEQKVLEAEVLALKMAEESERRAKEADQLKQDLQEAREAERRAKQKLLEIATKPTYPPMNPIPAPLPPDIPSFNLIGDSLSFDFKDTDMKRLSMEIEKEKVEYMEKSKHLQEQLNELKTEIEALKLKERETALDILHNENSDRGGSSKHNTIKKPQAQGRRPICI
# Variants of: B1
# Assay: reverse yeast two-hybrid deep mutational scan (rY2H-seq): NF2 isoform 7 mutant library as bait mated with wild-type prey strains; selection on medium lacking adenine for non-interacting pairs; NextSeq paired-end sequencing; enrichment vs …
# Conditions: with NF2 C-terminal domain (wild type; homomeric NF2-NF2 interaction), P35240; yeast diploids after mating (RBait_S3 x RPrey_S3), 30 °C, selection for reporter genes on NB agar; human ABL2 co-expressed as the kinase-dead K35M mutant …; HIGHER = WEAKER BINDING (the opposite of display enrichments): higher = stronger loss of interaction: reverse Y2H selects yeast in which bait and prey do NOT interact (growth without adenine), so a …; hits-only table; partner unresolved; scale: rY2H score; numbering: uniprot, sequence starts at 1
row,Variant,enrichment
1,L475K,4.06
2,L417T,2.32
3,S483K,2.55
4,S423L,2.58
5,D476G,1.92
6,P399S,3.98
7,L390A,2.28
8,S489K,2.15
9,T394K,1.65
10,T394R,3.98
11,A406L,10
12,D411L,3.15
13,P413K,1.53
14,N457E,2.32
15,H479A,4.46
16,K496S,1.44
17,L408C,1.37
18,F424E,27.7
19,A378L,2.15
20,L466C,1.55
21,E380K,3.26
22,N482E,1.99
23,N482A,3.43
24,K395S,2.15
25,H491L,2.51
26,F415E,2.37
27,A499G,1.7

# Same assay, conditions: with PIK3R3 (phosphatidylinositol 3-kinase regulatory subunit gamma), Q92569; yeast diploids after mating (RBait_S3 x RPrey_S3), 30 °C, selection for reporter genes on NB agar; human tyrosine kinase ABL2 co-expressed as the active kinase …; HIGHER = WEAKER BINDING (the opposite of display enrichments): higher = stronger loss of interaction: reverse Y2H selects yeast in which bait and prey do NOT interact (growth without adenine), so a …; hits-only table; scale: rY2H score; numbering: uniprot, sequence starts at 1
row,Variant,enrichment
1,Q498E,1.97
2,F173P,13
3,F173T,11
4,L216P,3.07
5,G146R,1.52
6,D194N,1.96
7,I141C,1.42
8,A62K,2.93
9,M133I,2.1
10,E339G,2.91
11,L212P,2.57
12,G486S,2.29
13,L207G,1.42
14,P52A,1.76
15,M401Q,2.91
16,D484E,2.39
17,R166K,2.44
18,R166C,1.57
19,A140V,2.13
20,S294F,2.27
21,S294V,1.71
22,T147A,5.43
23,E458L,13.6
24,G68V,7.34
25,R485K,6.26
26,A155T,2.16

row,Variant,enrichment
1,T394S,1.98
2,D71T,11.1
3,R89G,1.41
4,L353P,1.53
5,T336E,3.42
6,V63K,2
7,S73A,4.51
8,V24A,2.39
9,N176M,1.43
10,V352K,2.67
11,E234K,1.73
12,T493A,2.62
13,P396K,4.88
14,A365G,2.6
15,S55K,35.5
16,L14P,3.46
17,L149P,2.48
18,M280I,2.64
19,I171L,1.51
20,M225I,2.15
21,K346N,2.36
22,M357E,2.86
23,A368L,2.18
24,K191S,2.28
25,K388E,3.32
26,F415E,1.83
